Assay results: patent US9823254B2, “Reversible chemoenzymatic labeling of native and fusion carrier protein motifs” (The Regents of the University of California, priority 2012, dated 2017)
Values joined by “and” are separate entries in the source; they are usually repeats but may differ in a detail not shown here. Identical values can stand only once.

Columns and labels:
[1] = molecular target: T1, A. parasiticus PksA (Aspergillus parasiticus, UniProt Q12053); assay: AcpH qualitative CP activity, gel-based, crypto-CP; assay type: biochemical; settings: PKS; crypto-CP (coumarin-PPant), overnight, 37° C., 1 μM AcpH
T1 construct: made in house

[2] = tested on: P. agglomerans AdmI; assay: AcpH qualitative CP activity, gel-based, crypto-CP; assay type: biochemical; settings: PKS; crypto-CP (coumarin-PPant), overnight, 37° C., 1 μM AcpH
[3] = molecular target: E. coli AcpP (Escherichia coli, UniProt P0A6A8); settings: FAS; crypto-CP (coumarin-PPant), overnight, 37° C., 1 μM AcpH
Procedure: (§1) Unless otherwise noted, all coumarin-PPant labeling proceeded as follows: apo-carrier protein or peptide at 50-200 μM were labeled in 50 mM Na-HEPES pH 7.5, 10 mM MgCl2, 8 mM ATP, 0.1 μM MBP-CoaA/D/E, 0.1 μM native Sfp, and 1.1 equivalents of coumarin-pantetheine at 37° C. overnight. Crypto-protein samples were repurified using standard IMAC techniques in pH 8 lysis buffer with Ni-NTA resin, and spin-concentrated/buffer exchanged to remove imidazole and concentrate with 0.5 mL 3 kDa MWCO cellulose filters. Crypto-peptide samples were purified with HPLC, lyophilized, and redissolved in 50 mM TrisCl pH 8.0 prior to analysis.
(§2) Following AcpH treatment, an equal volume of 2×SDS-PAGE loading dye was added to crypto-carrier proteins samples and heated 5 min at 90° C., and run on 12% or 15% SDS-PAGE. Gels were fixed in 50/40/10% water/methanol/acetic acid for 30 minutes, and washed with water three times before UV imaging. Holo-carrier protein reactions were analyzed with Urea-PAGE as previously described.^6 All protein gels were Coomassie stained for evaluating total protein. Crypto-peptides were evaluated on Urea-PAGE, and were imaged immediately after running with no gel fixing.

[4] = molecular target: P. aeruginosa AcpP (Pseudomonas aeruginosa, UniProt O54439); settings: FAS; crypto-CP (coumarin-PPant), overnight, 37° C., 1 μM AcpH
Procedure: as §1, §2

[5] = molecular target: M. tuberculosis AcpM (Mycobacterium tuberculosis, UniProt P9WQF3); settings: FAS; crypto-CP (coumarin-PPant), overnight, 37° C., 1 μM AcpH
[6] = molecular target: holo-ACP (E. coli) (Escherichia coli, UniProt P0A6A8); settings: 37° C., HPLC detection, [AcpH] 1 (CyAcpH 0.005) μm
Procedure: Holo-E. coli AcpP was prepared as a serial dilution in 50 mM TrisCl, 250 mM NaCl, 30 mM MgCl2, and 2 mM MnCl2. […] CyAcpH was prepared at 10 nM in the same AcpH buffer. […] Reactions were transferred to prewarmed shaker at 37° C. and were quenched with 100 mM EDTA after 10 minutes. Samples were centrifuged and evaluated at 210 nm with HPLC using an acetonitrile gradient to determine apo-AcpP product formation. Michaelis-Menten kinetics were calculated using GraphPad Prism (GraphPad Software, La Jolla, Calif.).
E. coli holo-ACP was diluted into 50 mM TrisCl pH 8.0, 250 mM NaCl, 10% glycerol, 30 mM MgCl2 and 2 mM MnCl2 buffer to a concentration of 800 μM. […] AcpH was diluted from MOPS lysis buffer into 50 mM TrisCl pH 8.0, 250 mM NaCl, 10% glycerol and added to an equal volume of the holo-ACP serial dilution to initiate the reaction. Reaction tubes were transferred to a pre-warmed rack at 37° C. and shaken for the duration of the experiment. […] All samples were frozen at -80° C. until evaluated by HPLC.
Kinetics samples were mixed briefly with finger flicking, and centrifuged at 13000 rpm for 10 minutes at room temperature prior to transferring contents into HPLC vials. 20 μL of each reaction time point was injected on an Agilent 1100 series HPLC with column (Burdick & Jackson OD5 #9575, 25 cm×4.6 mm ID) using an acetonitrile/water gradient. Both water and acetonitrile contained 0.05% TFA. Method gradient for each injection: 0-5 min with 10% acetonitrile, 5-30 min with 10-100% acetonitrile, 30-35 min with 100% acetonitrile, 35-37 min with 100-10% acetonitrile, 37-40 min with 10% acetonitrile. HPLC-grade solvents (J. T. Baker, Phillipsburg, N.J.) were used exclusively. Apo- & holo-ACP protein standards were used to validate the retention times identified using 210 nm UV light at approximately 21 and 19 minutes, respectively. Peak integration was performed for all samples, and substrate turnover was calculated from the ratio of apo- to holo-ACP present in the HPLC trace and the known concentration of total ACP in reaction samples. Calculated rates for AcpH versus substrate concentration were obtained through Excel data analysis and graphed in Prism GraphPad using the “Michaelis-Menten” function for enzyme kinetics, with a zero data point added for substrate concentration of 0 μM*min-1 and 0 μM substrate for AcpH graphs.

[7] = tested on: P. fluorescens PltL; assay: AcpH qualitative CP activity, gel-based, crypto-CP; assay type: biochemical
[8] = tested on: P. agglomerans AdmA; assay: AcpH qualitative CP activity, gel-based, crypto-CP; assay type: biochemical; settings: NRPS; crypto-CP (coumarin-PPant), overnight, 37° C., 1 μM AcpH

B1: PaAcpH: acyl carrier protein hydrolase (AcpH) from P. aeruginosa PAO1, NP13 253043.1 (protein)
chain: MNYLAHLHLGGPQPAQLLGSLYGDFVKGRLQGQWPDEIERAIQLHRRIDAFTDSHPLVHAAKRRFPLERRRFAGVLLDVFFDHCLARDWNDYADEPLPQFVERVYGTLRTASPLPERLARIAPRMAAQDWLGSYREFAVLREVLGGMSRRLSRPHLLDGSWEELAQRYDDLSADFRAFYPQLQAFALSQR
AcpH qualitative CP activity [1]: YES | AcpH qualitative CP activity [2]: no | AcpH qualitative CP activity [3]: YES | AcpH qualitative CP activity [4]: YES | AcpH qualitative CP activity [5]: YES | Km [6]: 12 ± 2 µM | Vmax [6]: 0.59 ± 0.02 min⁻¹ | kcat [6]: 0.01 s⁻¹ and 0.00983 ± 0.00033 s⁻¹ | AcpH activity with PltL ([7]; NRPS-type PCP, crypto-PltL): partial activity | AcpH qualitative CP activity ([7]; NRPS, crypto-CP (coumarin-PPant), overnight, 37° C., 1 μM AcpH): YES | AcpH qualitative CP activity [8]: no
